In patent CN110760489A, “一种川芎咖啡酸-o-甲基转移酶的突变体及其用途” (Southwest Jiaotong University, priority 2019, dated 2020):
Numbering of substitutions follows the chain as printed. Names may count otherwise.

B1: Ligusticum chuanxiong caffeic acid O-methyltransferase LcCOMT, wild type [野生型LcCOMT; 川芎咖啡酸-O-甲基转移酶] (Conioselinum anthriscoides) (protein)
chain: MNTELIPPTFLEDEEEEACMFAMQLSSASVLPMVLKSAIELNLLESIAKAGPGVYVSPSHLAAGLPSSQPDTPVMLDRILRLLASYSVLNCQLRDLPQGRVERLYGLAPVCKFLTKNSDGVSMAPLLLMNQDKILMESWYHLKDAVLDGGIPFNKAYGMTAFEYHGKDPRFNKVFNQGMSNHSTITMKKILQTYDGFGGLKTVVDVGGGTGATLNMIISKYPNLKGINFDLPHVVEDAPSYPGVEHVGGDMFVSVPKGDAIFMKWICHDWSDAHCLTFLKNCYKALPKDGKVILAECILPEAPDSKLTTKNVIHIDVIMLAHNPGGKERTEKDFEALGKEAGFKSFNKACCAYNTWVIEYYK
B2: Ligusticum chuanxiong caffeic acid O-methyltransferase LcCOMT variant LcCOMT-I318T (Ile318 to Thr), SEQ ID No.2 [LcCOMT-I318T突变体; 川芎咖啡酸-O-甲基转移酶] (Conioselinum … (protein)
chain: B1 chain with I318T

What was measured:
[1] = substrate: COC(=O)/C=C/c1ccc(O)c(O)c1; assay: 动力学参数值测定 (kinetic parameters, double-reciprocal method), wild-type LcCOMT; type: biochemical, Ligusticum chuanxiong; settings: other: substrate 咖啡酸甲酯 0.0715-0.25 mM, S-adenosylmethionine 1 mM, pH 7.0, 37℃, HPLC, double-reciprocal plot, 37.0 °C
[2] = substrate: COC(=O)/C=C/c1ccc(O)c(O)c1; assay: 动力学参数值测定 (kinetic parameters, double-reciprocal method), LcCOMT-I318T mutant; type: biochemical, Ligusticum chuanxiong; settings: other: substrate 咖啡酸甲酯 0.0715-0.25 mM, S-adenosylmethionine 1 mM, pH 7.0, 37℃, HPLC, double-reciprocal plot, 37.0 °C

Row | Protein | Km [1] | Vmax [1] | kcat [1] | Km [2]
1 | B1 | 26.4 µM | 2.643*10^-8 M/S | 0.113 S-1 | –
2 | B2 | – | – | – | 19.7 µM
